Assay results from patent US20210403538A1.

Legend:
[1] = target: MARV GP [change] (Lake Victoria marburgvirus) (UniProt Q1PD50)
[2] = target: SUDV GP [change] (Sudan ebolavirus) (UniProt Q7T9D9)
[3] = target: BDBV GP [change] (Bundibugyo ebolavirus (BDBV), strain 200706291 Uganda); assay: ELISA, coated recombinant GP ΔTM
[4] = target: EBOV GP [change] (Zaire ebolavirus (EBOV), strain Makona); assay: ELISA, coated recombinant GP ΔTM
[5] = target: SUDV GP [change] (Sudan ebolavirus (SUDV), strain Gulu) (UniProt Q7T9D9); assay: ELISA

Row | Substance | EC50 [1] [µg/mL] | EC50 [2] [µg/mL] | EC50 [3] [µg/mL] | EC50 [4] [µg/mL] | EC50 [5] [µg/mL]
1 | 4G7 (antibody) | > 10 | > 10 | > 10 | 0.018 | 
2 | KZ52 (antibody) | > 10 | > 10 | > 10 | 0.014 | 
3 | rEBOV-520 LALA |  |  |  |  | 0.377
